Laboratory results taken from IntAct's records for PubMed 21139566.

B1: Structural maintenance of chromosomes protein 1 (Saccharomyces cerevisiae), P32908 (parent)
chain: MGRLVGLELSNFKSYRGVTKVGFGESNFTSIIGPNGSGKSNMMDAISFVLGVRSNHLRSNILKDLIYRGVLNDENSDDYDNEGAASSNPQSAYVKAFYQKGNKLVELMRIISRNGDTSYKIDGKTVSYKDYSIFLENENILIKAKNFLVFQGDVEQIAAQSPVELSRMFEEVSGSIQYKKEYEELKEKIEKLSKSATESIKNRRRIHGELKTYKEGINKNEEYRKQLDKKNELQKFQALWQLYHLEQQKEELTDKLSALNSEISSLKGKINNEMKSLQRSKSSFVKESAVISKQKSKLDYIFKDKEKLVSDLRLIKVPQQAAGKRISHIEKRIESLQKDLQRQKTYVERFETQLKVVTRSKEAFEEEIKQSARNYDKFKLNENDLKTYNCLHEKYLTEGGSILEEKIAVLNNDKREIQEELERFNKRADISKRRITEELSITGEKLDTQLNDLRVSLNEKNALHTERLHELKKLQSDIESANNQEYDLNFKLRETLVKIDDLSANQRETMKERKLRENIAMLKRFFPGVKGLVHDLCHPKKEKYGLAVSTILGKNFDSVIVENLTVAQECIAFLKKQRAGTASFIPLDTIETELPTLSLPDSQDYILSINAIDYEPEYEKAMQYVCGDSIICNTLNIAKDLKWKKGIRGKLVTIEGALIHKAGLMTGGISGDANNRWDKEEYQSLMSLKDKLLIQIDELSNGQRSNSIRAREVENSVSLLNSDIANLRTQVTQQKRSLDENRLEIKYHNDLIEKEIQPKITELKKKLDDLENTKDNLVKEKEALQNNIFKEFTSKIGFTIKEYENHSGELMRQQSKELQQLQKQILTVENKLQFETDRLSTTQRRYEKAQKDLENAQVEMKSLEEQEYAIEMKIGSIESKLEEHKNHLDELQKKFVTKQSELNSSEDILEDMNSNLQVLKRERDGIKEDIEKFDLERVTALKNCKISNINIPISSETTIDDLPISSTDNEAITISNSIDINYKGLPKKYKENNTDSARKELEQKIHEVEEILNELQPNARALERYDEAEGRFEVINNETEQLKAEEKKILNQFLKIKKKRKELFEKTFDYVSDHLDAIYRELTKNPNSNVELAGGNASLTIEDEDEPFNAGIKYHATPPLKRFKDMEYLSGGEKTVAALALLFAINSYQPSPFFVLDEVDAALDITNVQRIAAYIRRHRNPDLQFIVISLKNTMFEKSDALVGVYRQQQENSSKIITLDLSNYAE
partner: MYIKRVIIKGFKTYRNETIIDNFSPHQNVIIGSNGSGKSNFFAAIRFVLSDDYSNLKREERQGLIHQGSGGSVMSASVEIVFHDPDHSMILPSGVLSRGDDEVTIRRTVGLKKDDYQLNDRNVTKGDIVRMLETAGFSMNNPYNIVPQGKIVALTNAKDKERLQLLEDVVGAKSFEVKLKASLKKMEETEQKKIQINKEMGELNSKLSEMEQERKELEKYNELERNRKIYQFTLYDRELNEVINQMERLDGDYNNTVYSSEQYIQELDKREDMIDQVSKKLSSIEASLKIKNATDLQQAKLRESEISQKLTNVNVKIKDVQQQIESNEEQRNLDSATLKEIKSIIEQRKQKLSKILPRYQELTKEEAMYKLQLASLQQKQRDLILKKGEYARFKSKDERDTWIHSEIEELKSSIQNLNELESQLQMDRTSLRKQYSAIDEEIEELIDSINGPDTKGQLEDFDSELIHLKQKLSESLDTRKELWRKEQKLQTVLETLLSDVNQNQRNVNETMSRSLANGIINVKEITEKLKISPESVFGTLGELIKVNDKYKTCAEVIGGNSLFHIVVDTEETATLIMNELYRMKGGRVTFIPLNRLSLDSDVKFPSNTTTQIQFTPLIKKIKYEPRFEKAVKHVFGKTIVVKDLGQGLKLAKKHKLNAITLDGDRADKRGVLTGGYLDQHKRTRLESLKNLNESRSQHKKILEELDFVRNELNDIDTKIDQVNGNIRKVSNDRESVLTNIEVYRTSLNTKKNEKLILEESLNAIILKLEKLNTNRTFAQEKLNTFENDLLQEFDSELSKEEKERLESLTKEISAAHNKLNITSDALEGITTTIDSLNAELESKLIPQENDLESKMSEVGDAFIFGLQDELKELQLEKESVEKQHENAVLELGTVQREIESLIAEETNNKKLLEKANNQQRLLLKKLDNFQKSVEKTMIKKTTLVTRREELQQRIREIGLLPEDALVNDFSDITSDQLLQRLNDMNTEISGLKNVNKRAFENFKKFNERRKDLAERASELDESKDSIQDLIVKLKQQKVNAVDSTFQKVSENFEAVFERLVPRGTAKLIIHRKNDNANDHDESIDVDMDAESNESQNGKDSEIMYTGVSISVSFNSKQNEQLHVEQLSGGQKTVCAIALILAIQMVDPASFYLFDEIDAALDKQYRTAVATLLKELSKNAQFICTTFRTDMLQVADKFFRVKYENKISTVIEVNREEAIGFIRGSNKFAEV
B2: Structural maintenance of chromosomes protein 3 (Saccharomyces cerevisiae), P47037 (parent)
chain: B1 partner
partner: B1 chain

Variants of: B1
Conditions: with smc3_yeast SMC3, P47037
For M665R, the “effect of a mutation on the interaction” value was “disrupting interaction”.

Variants of: B1
Conditions: with smc3_yeast SMC3, P47037
Remark: another data set of the same source
For K661D, the “effect of a mutation on the interaction” value was “decreasing interaction”.
In the case of K554D, the “effect of a mutation on the interaction” value is reported as “decreasing interaction”.

Variants of: B2
Conditions: with smc1_yeast SMC1, P32908
K668A was tested, and the “effect of a mutation on the interaction” value was “decreasing interaction”.
With R669A the “effect of a mutation on the interaction” value was “decreasing interaction”.
In the case of R665A, the “effect of a mutation on the interaction” value is reported as “decreasing interaction”.
